Test results from the supplement of paper PMC12042874.
± gives the uncertainty stated by the source.

Test: amyloid nucleation score (Sup35N fusion, yeast selection) (log enrichment); library NNK2; higher = more nucleation; inactive = no reads after selection
Outline: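 In psi-negative yeast, Sup35N fusions carrying peptides of 20 random codons were induced with 100 μM copper sulfate for 24 hours. The cells then grew 7 days at 30°C on medium lacking adenine and uracil, and plasmid inserts from input and output were Illumina-sequenced, excluding sequences with under 100 input reads. Nucleation score is the DiMSum log enrichment of output over input reads, centred on the mode score of non-aggregating sequences.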
Substance MACTFHVLTMGRFWSAWHRM has an amyloid nucleation score of 0.598 ± 0.29. MAGWLLNINLLMPIVGDVLQ showed an amyloid nucleation score of 8.131 ± 0.056. With MAMVLWLECTS the amyloid nucleation score was 0.924 ± 0.47. With MASSPSVSIIKLFFGVEGLS the amyloid nucleation score was -0.681 ± 1. Substance MASVMLQCHGCPLGKGTARA has an amyloid nucleation score of 0.879 ± 0.41. MAYGGPFSVLSSWDDADNGY showed an amyloid nucleation score of -0.05 ± 0.5. Substance MCGNWLD has an amyloid nucleation score of 3.05 ± 0.055. Work on MCPLT yielded an amyloid nucleation score of 0.638 ± 0.17. MCTDFQC showed an amyloid nucleation score of 0.475 ± 0.27. Work on MCVYCVDYWGACRLEILALW yielded an amyloid nucleation score of -0.423 ± 0.41. In the case of MDCECG, the amyloid nucleation score is reported as 1.03 ± 0.3. In the case of MDFGVLARSNLYIIYYLCLR, the amyloid nucleation score is reported as “inactive”. For MDLLPNSGYGLRSDLRVLAE, the amyloid nucleation score was 3.5 ± 0.097. Work on MDLVSSFRLNVCGT yielded an amyloid nucleation score of 0.089 ± 0.5. With MDNHVLKFYRNDYKE the amyloid nucleation score was 0.191 ± 0.65. MDWIPLMPTYGIWLPC gave an amyloid nucleation score of 0.045 ± 0.41. Work on MEDHF yielded an amyloid nucleation score of 3.69 ± 0.11. Substance MELRFDCF has an amyloid nucleation score of 0.089 ± 1.1. MEPYRVKAMYPPRVIKVWFT gave an amyloid nucleation score of -0.448 ± 0.76. Substance MERIPVVSDMGRLGFSACRL has an amyloid nucleation score of 0.821 ± 0.23. For MFERINALFNLQ, the amyloid nucleation score was 3.46 ± 0.14. Work on MFFFYKFMKDKIGN yielded an amyloid nucleation score of 4.37 ± 0.051. With MFFNLAI the amyloid nucleation score was “inactive”. MFKQFVSLLHQGLFLSLSFD showed an amyloid nucleation score of -0.01 ± 0.6. For MFLFGASLRIIRVVLTYELL, the amyloid nucleation score was “inactive”. Work on MFLNPQPVFDLISFNVVSTP yielded an amyloid nucleation score of 9.306 ± 0.032. Substance MFNACDNRKFCVGVCSDLK has an amyloid nucleation score of 0.036 ± 0.41. MFSIYSGYIVKQC gave an amyloid nucleation score of 0.336 ± 0.74. With MFSMGEAAAL the amyloid nucleation score was 0.305 ± 0.3. Work on MFVGGGSSSTWLGNVWYVGS yielded an amyloid nucleation score of -0.337 ± 1.1. For MFVGSGRDCTVTVPFRQPTG, the amyloid nucleation score was 1.86 ± 0.29. MFVWVQSRIGKGFGMGFRRW gave an amyloid nucleation score of -0.307 ± 0.76. Substance MGCCIYCYSRIDHL has an amyloid nucleation score of 8.743 ± 0.055. MGDSTIEVTLPVG showed an amyloid nucleation score of 0.987 ± 0.39. MHRLPNNIPTGNQLPLQPSE showed an amyloid nucleation score of -0.41 ± 0.48. With MIASIGLDCEHVM the amyloid nucleation score was 0.841 ± 0.5. In the case of MICHMFMG, the amyloid nucleation score is reported as “inactive”. Substance MIDWGVIV has an amyloid nucleation score of -0.149 ± 0.76. For MIGDYTSFCMGSGF, the amyloid nucleation score was “inactive”. Work on MIICLEVKTGYST yielded an amyloid nucleation score of 3.73 ± 0.068. In the case of MILEVSDWLGVVCVIKVWLT, the amyloid nucleation score is reported as 0.561 ± 0.41. Work on MILNQMYDKFYSRLSSITSR yielded an amyloid nucleation score of 1.31 ± 0.66. For MIQRFVISSGYRGFYLTLLI, the amyloid nucleation score was “inactive”. Work on MISVVRKPPLIISVIRSRWD yielded an amyloid nucleation score of 0.687 ± 0.47. MITDGGASVGLNYRYS gave an amyloid nucleation score of -0.524 ± 0.33. With MKIYARIMSFLWATVKCVGY the amyloid nucleation score was “inactive”. With MKRLPDSDIMVVPIVHKINL the amyloid nucleation score was “inactive”. MKSLLLLCCYSELAYLCGML gave an amyloid nucleation score of -1.34 ± 0.4. MLDGTSCICVVIEA showed an amyloid nucleation score of -0.035 ± 0.21. Work on MLGCCPRVSVVPNTV yielded an amyloid nucleation score of -0.467 ± 0.45. MLIDSWSVAIYICLLLIQVQ showed an amyloid nucleation score of 1.34 ± 0.13. With MLKSYDKKWWGTMAWSNSSV the amyloid nucleation score was 0.711 ± 0.34. With MLKWWLFTRSSSPGRHCRLD the amyloid nucleation score was -0.471 ± 0.54. For MLLIIVWQILMKLNGWITVL, the amyloid nucleation score was “inactive”. For MLLPLNYECGVQYS, the amyloid nucleation score was -0.179 ± 0.37. MLLRHNEPVLLRAHYYRESA showed an amyloid nucleation score of -0.13 ± 0.76. Substance MLLYNESNANQLKRGSGRWL has an amyloid nucleation score of 0.156 ± 0.32. For MLVDVLGC, the amyloid nucleation score was “inactive”. For MMFNYVFASLGFKRNVHLEC, the amyloid nucleation score was “inactive”. Work on MMGWFPRKLES yielded an amyloid nucleation score of -0.125 ± 0.41. MMVAGLFLGAFFLISTKGVK gave an amyloid nucleation score of 4.43 ± 0.064. In the case of MMVRN, the amyloid nucleation score is reported as 1.22 ± 0.57. In the case of MMYISSGVFWTE, the amyloid nucleation score is reported as “inactive”. In the case of MNEFCRTGCRTFRQRSSCCR, the amyloid nucleation score is reported as 0.868 ± 0.15. For MNYLCASSGVLVKN, the amyloid nucleation score was -0.055 ± 1.1. MPCLFVF showed an amyloid nucleation score of 2.28 ± 0.17. With MPEIREREMYGLVESLEYKK the amyloid nucleation score was -0.147 ± 0.41. With MPHLVVTNAPGVSIRVGSDW the amyloid nucleation score was -0.888 ± 0.78. MPLCECHNKGHVDFCDTRTA showed an amyloid nucleation score of -0.072 ± 1.1. MPWFIQMVHLCWFPEGRTRF showed an amyloid nucleation score of 4.85 ± 0.071. For MRFNDTENWGVSDVISSNDF, the amyloid nucleation score was “inactive”. MRFRLCNYLLRRVWDLNRGA gave an amyloid nucleation score of -1.18 ± 0.39. MRLTTGINF showed an amyloid nucleation score of -1.14 ± 0.76. Work on MRLVSSDDFCV yielded an amyloid nucleation score of 0.097 ± 0.8. For MRVDLKLVSAYLKSRFGPMF, the amyloid nucleation score was -0.341 ± 0.79. In the case of MRWIFGHAGPSFSCILKKRP, the amyloid nucleation score is reported as “inactive”. In the case of MSFNGCFDRMRREDRYEI, the amyloid nucleation score is reported as 0.16 ± 0.65. With MSGWVAGLHLDVCGVDYAGG the amyloid nucleation score was 1.9 ± 0.29. MSKEVVSSGYVIHIRRQRGG gave an amyloid nucleation score of 0.82 ± 0.57. Substance MSKGVYIYNIYYLVMSGVPL has an amyloid nucleation score of 4.9 ± 0.063. In the case of MSLCGYNYI, the amyloid nucleation score is reported as “inactive”. For MSLVSRNSTSKHLNIVFSLI, the amyloid nucleation score was 5.057 ± 0.045. For MSMLNRALGILKSTFMINRR, the amyloid nucleation score was -0.058 ± 0.53. Substance MSNARRFSMNDSYNIVLCWE has an amyloid nucleation score of -0.111 ± 0.63. With MSPVCLCCYLPTRVYCKVSG the amyloid nucleation score was 5.85 ± 0.084. Substance MSRSVVESQMVLSDDFWHQG has an amyloid nucleation score of -0.41 ± 0.22. For MSRWKVHFTMRTSPCIVNEH, the amyloid nucleation score was 1.17 ± 0.45. With MSRWTKIGNFDNIPSIPLVV the amyloid nucleation score was -0.228 ± 0.36. Substance MSSCLRL has an amyloid nucleation score of 4.51 ± 0.056. For MSSSVHLGIFITQCVKTRQL, the amyloid nucleation score was 2.25 ± 0.22. In the case of MSSYDF, the amyloid nucleation score is reported as “inactive”. In the case of MSTMINSPPSSG, the amyloid nucleation score is reported as “inactive”. Substance MSVTWYLGNWVTVL has an amyloid nucleation score of -1.09 ± 0.79. Substance MSVVVLWHGLCLQLYMCDA has an amyloid nucleation score of -0.23 ± 0.65. In the case of MSWVVIQFTINIFRHKTF, the amyloid nucleation score is reported as 3.47 ± 0.11. Work on MTIHVSTELAALSSGL yielded an amyloid nucleation score of 1.11 ± 0.17. Work on MTLVRFSRIGALKLCLQKES yielded an amyloid nucleation score of -0.337 ± 0.39. Work on MTYRSLPEYTDLLWVTYVER yielded an amyloid nucleation score of 0.369 ± 0.46. MVANG showed an amyloid nucleation score of 0.317 ± 0.62. For MVCLLSFPHPCGINLMVARN, the amyloid nucleation score was -0.147 ± 0.37. For MVCRFGILSYVMWRF, the amyloid nucleation score was 0.83 ± 0.45. MVDTTRSTCISNSISWCAID showed an amyloid nucleation score of 5.28 ± 0.062. Substance MVGVVWSMTRFCGQHHTILG has an amyloid nucleation score of 0.531 ± 0.81. For MVNGEVTLGAVCNTYQWACI, the amyloid nucleation score was 2.66 ± 0.15. Work on MVPVFTGWRICVGGNCLARR yielded an amyloid nucleation score of -0.162 ± 0.34. For MVVEFCYVRYRAN, the amyloid nucleation score was 0.716 ± 0.6. MVVNVGK showed an amyloid nucleation score of -0.088 ± 0.17. Work on MWFWTLCIF yielded an amyloid nucleation score of 8.025 ± 0.027. With MWIHYKVFRCWTVRAEKVTG the amyloid nucleation score was 4.29 ± 0.083. For MWIYNY, the amyloid nucleation score was 2.78 ± 0.087. With MWLASSDNYHNMALVCFCVL the amyloid nucleation score was “inactive”. MWVDQMVFKRPGYCRSGMYL gave an amyloid nucleation score of 4.78 ± 0.049. Work on MYDFLVKGRGVCVNLGNSTW yielded an amyloid nucleation score of -1.21 ± 0.48. MYEFQPRLDHRLFRYICMNV showed an amyloid nucleation score of -0.018 ± 1.1. For MYILMKDIRDFIFSSRPIIS, the amyloid nucleation score was “inactive”. Work on MYRISPCVLRGY yielded an amyloid nucleation score of 0.366 ± 0.34. MYSYFSRSMTHTNNGLSSLA gave an amyloid nucleation score of 4.38 ± 0.045. With MYTKVNF the amyloid nucleation score was -0.93 ± 0.76. In the case of MYTLYS, the amyloid nucleation score is reported as “inactive”. MYTVGWHSTQCFLEDFGRTL gave an amyloid nucleation score of 3.13 ± 0.075. For NACILNSM, the amyloid nucleation score was “inactive”. Work on NADHDLSEILVNRRTGWFHF yielded an amyloid nucleation score of 5.836 ± 0.041. NALSIQVGSCPRSLISSVGP gave an amyloid nucleation score of 0.228 ± 1. For NASLYVSYGM, the amyloid nucleation score was 1.5 ± 0.39. NASVHPMFL gave an amyloid nucleation score of -0.24 ± 0.48. For NATCPRHCRDHQGSYYRHCL, the amyloid nucleation score was 0.499 ± 0.28. Work on NAVFVFSRWWYISNVVPQK yielded an amyloid nucleation score of -1.48 ± 1.1.
